The target of the assay is T1, 人心肌肌钙蛋白I (cTnI) (human, UniProt P19429 1-210, limits assumed).
T1 construct: Both are treated here as one molecule; also called cTnI蛋白; cTnI质控品重组蛋白
Put plainly: BLI (AMC sensor), antibody captured, cTnI recombinant protein in solution.

T1 sequence (P19429 whole entry): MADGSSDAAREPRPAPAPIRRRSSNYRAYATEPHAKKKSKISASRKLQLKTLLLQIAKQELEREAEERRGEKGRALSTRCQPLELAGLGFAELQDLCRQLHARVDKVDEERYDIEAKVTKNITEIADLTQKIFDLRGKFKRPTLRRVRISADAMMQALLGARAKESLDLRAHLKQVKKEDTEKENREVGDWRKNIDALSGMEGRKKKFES

B1: Anti-cTnI 6E3 重组抗体 (WT) (antibody, mouse IgG1, kappa, V domains shown)
VH: EVQLQQSGPEVVKPGASVKISCKASGFIFSGQTMNWVKQSGEKNLEWIGLLNPSDNTTYNNKFKGKATLTVDKSSNTAYMQLLSLTSEDSAVYYCSSFGSWAQGTLVTVSA
VL: DIVLTQSPASLAVSLGQRATISCKASNSIDYEGDSYMNWYQQKPGQSPKLLIFVASLVDSGIPARFSASGSGTDFTLNIHPVEEEDAATYYCQQTYEGPWTFGGGTKLEIKR
notes: also called 样品1的抗体; Anti-cTnI 6E3单克隆抗体
On to B1, for which the Kd (in general, a measure of binding affinity in units of concentration) came to 65.5 nM; the koff (as a rule, a measure of how fast the partners let go of each other) turned out to be 0.00278 s⁻¹; the kon (as a rule, a measure of how fast the partners come together) stood at 42500 M⁻¹ s⁻¹.

The values above are taken from CN111018978A (DONGGUAN PENGZHI BIOTECHNOLOGY CO LTD, dated 2020).
